Measurements as given in patent US20050118674A1, “Engineering of Controlled Deamidation Rates in Peptides, Proteins, and Similar Structures” (priority 2003, published 2005).

Test: First-order nonenzymatic deamidation of pentapeptides in Tris buffer
Format: physicochemical
Settings: pH 7.4, 37.0° C., 0.15 M Tris HCl; Asn pentapeptides
In short: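 First-order deamidation rates determined for XxxAsnYyy and XxxGlnYyy pentapeptides in 0.15 M Tris buffer, pH 7.4, 37° C. Not all values were measured directly: several Asn rates were estimated and most Gln rates came from surface fitting.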

Point of comparison: “GlyLysAsnGluGly (GKNEG; printed: GlyLysAsnGluGly)”, “First-Order Deamidation Halftimes of GlyXxxAsnYyyGly” value 72.5 days. Against it:
- GlyLeuAsnSerGly (GLNSG; printed: GlyLeuAsnSerGly) — lower, 16.7 days
- GlyLeuAsnThrGly (GLNTG; printed: GlyLeuAsnThrGly) — lower, 46.1 days
- GlyLeuAsnTrpGly (GLNWG; printed: GlyLeuAsnTrpGly) — higher, 74.5 days
- GlyLeuAsnTyrGly (GLNYG; printed: GlyLeuAsnTyrGly) — higher, 75.7 days
- GlyLeuAsnValGly (GLNVG; printed: GlyLeuAsnValGly) — higher, 294 days
- GlyLysAsnAlaGly (GKNAG; printed: GlyLysAsnAlaGly) — lower, 23.6 days
- GlyLysAsnAmCysGly — lower, 36.5 days
- GlyLysAsnArgGly (GKNRG; printed: GlyLysAsnArgGly) — lower, 57.4 days
- GlyLysAsnAspGly (GKNDG; printed: GlyLysAsnAspGly) — lower, 34.0 days
- GlyLysAsnCysGly (GKNCG; printed: GlyLysAsnCysGly) — lower, 49.0 days
- GlyLysAsnGlyGly (GKNGG; printed: GlyLysAsnGlyGly) — lower, 1.02 days
- GlyLysAsnHisGly (GKNHG; printed: GlyLysAsnHisGly) — lower, 10.5 days
- GlyLysAsnIleGly (GKNIG; printed: GlyLysAsnIleGly) — higher, 313 days
- GlyLysAsnLeuGly (GKNLG; printed: GlyLysAsnLeuGly) — higher, 119 days

Same assay, conditions: pH 7.4, 37.0 ° C., 0.15 M Tris HCl; Gln pentapeptides; 52 values measured, rest derived from surface fitting

Point of comparison: “GlyLeuGlnThrGly (GLQTG; printed: GlyLeuGlnThrGly)”, “First-Order Deamidation Halftimes of GlyXxxGlnYyyGly” value 5300 days. Against it:
- GlyLeuGlnAlaGly (GLQAG; printed: GlyLeuGlnAlaGly) — higher, 6000 days
- GlyLeuGlnArgGly (GLQRG; printed: GlyLeuGlnArgGly) — higher, 7200 days
- GlyLeuGlnAspGly (GLQDG; printed: GlyLeuGlnAspGly) — higher, 7800 days
- GlyLeuGlnCysGly (GLQCG; printed: GlyLeuGlnCysGly) — lower, 2000 days
- GlyLeuGlnGluGly (GLQEG; printed: GlyLeuGlnGluGly) — higher, 7400 days
- GlyLeuGlnGlyGly (GLQGG; printed: GlyLeuGlnGlyGly) — lower, 670 days
- GlyLeuGlnHisGly (GLQHG; printed: GlyLeuGlnHisGly) — higher, 6100 days
- GlyLeuGlnIleGly (GLQIG; printed: GlyLeuGlnIleGly) — higher, 6500 days
- GlyLeuGlnLeuGly (GLQLG; printed: GlyLeuGlnLeuGly) — higher, 6300 days
- GlyLeuGlnLysGly (GLQKG; printed: GlyLeuGlnLysGly) — higher, 6100 days
- GlyLeuGlnMetGly (GLQMG; printed: GlyLeuGlnMetGly) — lower, 4800 days
- GlyLeuGlnPheGly (GLQFG; printed: GlyLeuGlnPheGly) — higher, 8000 days
- GlyLeuGlnProGly (GLQPG; printed: GlyLeuGlnProGly) — higher, 10000 days
- GlyLeuGlnSerGly (GLQSG; printed: GlyLeuGlnSerGly) — higher, 5800 days
- GlyLeuGlnTrpGly (GLQWG; printed: GlyLeuGlnTrpGly) — higher, 16000 days
- GlyLeuGlnTyrGly (GLQYG; printed: GlyLeuGlnTyrGly) — higher, 12000 days
- GlyLeuGlnValGly (GLQVG; printed: GlyLeuGlnValGly) — higher, 6800 days
